Source: patent US20100048462A1, “TRUNCATED PTH PEPTIDES WITH A CYCLIC CONFORMATION” (Zealand Pharma A/S, priority 2006, published 2010)
Bridge positions count the residues as written; N and C are the ends. Square brackets hold non-standard residues; d marks the D form. Peptide text beside a SMILES is read from it. hArg = N=C(N)NCCCC[C@H](N)C(=O)O; Met(O) = CS(=O)CC[C@H](N)C(=O)O; Ac5c = NC1(C(=O)O)CCCC1; Abu = CC[C@H](N)C(=O)O; Aib = CC(C)(N)C(=O)O

Tests used:
[1] = molecular target: Saos-2 PTH1R (UniProt Q03431); assay: cell-based or functional assay
[2] = molecular target: T1, Saos-2 PTH1R (Homo sapiens, UniProt Q03431); assay: cAMP-efficacy assay in Saos-2 cells; assay type: cell-based; settings: for EC50: cAMP, 100 μM IBMX, 37° C. 15 min, suffix of label = salt tested; for Emax ± SEM: relative effect to the control (SEQ ID NO: 32)
T1 construct: endogenous in cells; host or cells: Saos-2
T1 sequence (Q03431 27-593): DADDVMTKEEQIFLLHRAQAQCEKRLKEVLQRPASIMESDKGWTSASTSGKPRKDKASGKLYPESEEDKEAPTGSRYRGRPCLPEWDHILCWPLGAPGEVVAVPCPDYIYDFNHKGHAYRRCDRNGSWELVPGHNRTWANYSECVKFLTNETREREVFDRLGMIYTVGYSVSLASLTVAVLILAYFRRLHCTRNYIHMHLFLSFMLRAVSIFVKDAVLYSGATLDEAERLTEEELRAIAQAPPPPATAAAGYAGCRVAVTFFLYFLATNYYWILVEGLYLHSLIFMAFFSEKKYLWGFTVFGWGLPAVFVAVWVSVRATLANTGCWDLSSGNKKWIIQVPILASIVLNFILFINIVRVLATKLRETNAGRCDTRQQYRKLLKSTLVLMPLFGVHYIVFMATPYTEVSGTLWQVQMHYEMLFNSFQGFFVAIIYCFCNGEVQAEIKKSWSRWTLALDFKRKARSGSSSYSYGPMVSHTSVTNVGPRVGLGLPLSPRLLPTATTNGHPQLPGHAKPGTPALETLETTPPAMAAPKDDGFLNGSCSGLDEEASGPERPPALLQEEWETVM
Experimental: Peptides were dissolved in phosphate buffered saline and further diluted in Tyrode's buffer (TB, Sigma-Aldrich) containing 0.1% BSA and 100 μM isobutyl-methyl-xanthine (IBMX, Sigma-Aldrich). Saos-2 cells were seeded at 50,000 cells/well in 96-microtiter plates and grown for two days before the efficacy assays. On the day of analysis, the growth medium was carefully removed by suction. Cells were washed once with 200 μl TB/0.1% BSA. The buffer was replaced with 100 μl reaction mixture (±test peptide), and incubated at 37° C. for 15 min. The reaction was stopped by addition of 25 μl of ice-cold 0.5 M HCl. Cells were in the following incubated on ice for 60 min. 75 μl acetate-buffer, pH6.2, was added to each well of a 96-well cAMP FlashPlate (Perkin-Elmer). […] FlashPlates were incubated overnight at 4° C., emptied by suction and counted in a TopCounter (Packard).
Determinations were performed in single determinations or triplicates at all doses. […] Standards were included as single determinations, duplicates or triplicates in each experiment, preferentially on each plate.
Concentration-dependent cAMP responses were imported into GraphPad Prism vers. 4 (GraphPad Software), transformed and plotted. […] Thus, a four-parameter logistic equation was used for determination of the EC50 values. Curves were fitted with a function for sigmoidal dose response curve (variable slope) non-linear fit Y=Bottom+(Top-Bottom)/(1+10̂((LogEC50−X)*HillSlope)) where X is the logarithm of concentration and Y is the response. Y starts at Bottom and goes to Top with a sigmoid shape. pEC50, Hill-coefficient and the maximally inducible concentration of cAMP (Emax) were evaluated.
Overall statistical differences were analyzed with Statistica (Statsoft) using one-way ANOVA. Post-hoc comparisons were made by the use of Fisher's Least Significance Test. Results were considered significant, when p was lower than 0.05.

H-Ac5c-Val-Aib-Glu-Ile-Gln-Leu-Leu-His-Gln-Har-Arg-Lys( )-Trp-Leu-Asn-Asp( )-NH2 (peptide)
Emax, cAMP efficacy assay in Saos-2 cells (28T, trifluoroacetate salt) (relative to control (SEQ ID NO: 32)) [1]: 0.95 | pEC50, cAMP efficacy assay in Saos-2 cells (28T, trifluoroacetate salt) [1]: 8.27 -log(M)

H-Ac5c-Val-Aib-Glu-Ile-Gln-Leu-Leu-His-Gln-Har-Ala-Lys( )-Trp-Leu-Asp-Asp( )-NH2 (peptide)
Emax, cAMP efficacy assay in Saos-2 cells (22T, trifluoroacetate salt) (relative to control (SEQ ID NO: 32)) [1]: 1.08 | pEC50, cAMP efficacy assay in Saos-2 cells (22T, trifluoroacetate salt) [1]: 7.13 -log(M)

H-Ac5c-Val-Ac5c-Glu-Ile-Gln-Leu-Leu-His-Gln-Har-Ala-Lys( )-Trp-Leu-Asn-Asp( )-NH2 (peptide)
Emax, cAMP efficacy assay in Saos-2 cells (14T, trifluoroacetate salt) (relative to control (SEQ ID NO: 32)) [1]: 1.03 | pEC50, cAMP efficacy assay in Saos-2 cells (14T, trifluoroacetate salt) [1]: 7.45 -log(M)

(H-Ac5c-Val-Aib-Glu-Ile-Gln-Leu-Met-His-Gln-Har-Ala-Lys( )-Trp-Leu-Asn-Asp( )-NH2)2 (peptide)
Emax, cAMP efficacy assay in Saos-2 cells (39T, trifluoroacetate salt) (relative to control (SEQ ID NO: 32)) [1]: 0.95 | pEC50, cAMP efficacy assay in Saos-2 cells (39T, trifluoroacetate salt) [1]: 8.3 -log(M)

H-Nva-Val-Aib-Glu-Ile-Gln-Leu-Leu-His-Gln-Har-Ala-Lys( )-Trp-Leu-Asn-Asp( )-NH2 (peptide)
Emax, cAMP efficacy assay in Saos-2 cells (12T, trifluoroacetate salt) (relative to control (SEQ ID NO: 32)) [1]: 1.04 | pEC50, cAMP efficacy assay in Saos-2 cells (12T, trifluoroacetate salt) [1]: 6.99 -log(M)

H-Ac5c-Val-Aib-Glu-Ile-Gln-Leu-Met-His-Gln-Har-Ala-Asp( )-Trp-Leu-Asn-Lys( )-NH2 (peptide)
Emax, cAMP efficacy assay in Saos-2 cells (6T, trifluoroacetate salt) (relative to control (SEQ ID NO: 32)) [1]: 1.5 | pEC50, cAMP efficacy assay in Saos-2 cells (6T, trifluoroacetate salt) [1]: 6.9 -log(M)

CC[C@H](C)[C@H](NC(=O)[C@H](CCC(=O)O)NC(=O)C(C)(C)NC(=O)[C@@H](NC(=O)C1(N)CCCC1)C(C)C)C(=O)N[C@@H](CCC(N)=O)C(=O)N[C@@H](CC(C)C)C(=O)N[C@@H](CCSC)C(=O)N[C@@H](Cc1c[nH]cn1)C(=O)N[C@@H](CCC(N)=O)C(=O)N[C@@H](CCCCNC(=N)N)C(=O)N[C@@H](C)C(=O)N[C@H]1CCCCNC(=O)C[C@@H](C(N)=O)NC(=O)[C@H](CC(N)=O)NC(=O)[C@H](CC(C)C)NC(=O)[C@H](Cc2c[nH]c3ccccc23)NC1=O [2C, H-Ac5c-Val-Aib-Glu-Ile-Gln-Leu-Met-His-Gln-Har-Ala-Lys( )Trp-Leu-Asn-Asp( )-NH2] (H-[Ac5c]V[Aib]EIQLMHQ[hArg]AKWLND-NH2; lactam 13-17)
EC50 [2]: 6.61 nM | Emax ± SEM [2]: 0.94 ± 0.03

CC[C@H](NC(=O)[C@@H](NC(=O)C1(N)CCCC1)C(C)C)C(=O)N[C@@H](CCC(=O)O)C(=O)N[C@H](C(=O)N[C@@H](CCC(N)=O)C(=O)N[C@@H](CC(C)C)C(=O)N[C@@H](CC(C)C)C(=O)N[C@@H](Cc1c[nH]cn1)C(=O)N[C@@H](CCC(N)=O)C(=O)N[C@@H](CCCCNC(=N)N)C(=O)N[C@@H](C)C(=O)N[C@H]1CCCCNC(=O)C[C@@H](C(N)=O)NC(=O)[C@H](CC(N)=O)NC(=O)[C@H](CC(C)C)NC(=O)[C@H](Cc2c[nH]c3ccccc23)NC1=O)[C@@H](C)CC [SEQ ID NO: 15, H-Ac5c-Val-Abu-Glu-Ile-Gln-Leu-Leu-His-Gln-Har-Ala-Lys( )-Trp-Leu-Asn-Asp( )-NH2] (H-[Ac5c]V[Abu]EIQLLHQ[hArg]AKWLND-NH2; lactam 13-17)
EC50 [2]: 60.3 nM | Emax ± SEM [2]: 1.04 ± 0.03

H-Ac6c-Val-Aib-Glu-Ile-Gln-Leu-Leu-His-Gln-Har-Ala-Lys( )-Trp-Leu-Asn-Asp( )-NH2 (peptide)
Emax, cAMP efficacy assay in Saos-2 cells (10T, trifluoroacetate salt) (relative to control (SEQ ID NO: 32)) [1]: 1.08 | pEC50, cAMP efficacy assay in Saos-2 cells (10T, trifluoroacetate salt) [1]: 7.9 -log(M)

H-[Ac5c]V[Aib]EIQLMHQ[hArg]AKWLND-OH
Emax, cAMP efficacy assay in Saos-2 cells (38T, trifluoroacetate salt) (relative to control (SEQ ID NO: 32)) [1]: 1.2 | pEC50, cAMP efficacy assay in Saos-2 cells (38T, trifluoroacetate salt) [1]: 7 -log(M)

H-Ac5c-Val-Nva-Glu-Ile-Gln-Leu-Leu-His-Gln-Har-Ala-Lys( )-Trp-Leu-Asn-Asp( )-NH2 (peptide)
Emax, cAMP efficacy assay in Saos-2 cells (16T, trifluoroacetate salt) (relative to control (SEQ ID NO: 32)) [1]: 1.03 | pEC50, cAMP efficacy assay in Saos-2 cells (16T, trifluoroacetate salt) [1]: 6.92 -log(M)

H-Ac5c-Val-Aib-Glu-Ile-Gln-Leu-Met-His-Gln-Har-Ala-Lys( )-Phe-Leu-Asn-Asp( )-NH2 (peptide)
Emax, cAMP efficacy assay in Saos-2 cells (26T, trifluoroacetate salt) (relative to control (SEQ ID NO: 32)) [1]: 1.08 | pEC50, cAMP efficacy assay in Saos-2 cells (26T, trifluoroacetate salt) [1]: 7.9 -log(M)

CC[C@H](C)[C@H](NC(=O)[C@H](CCC(=O)O)NC(=O)C(C)(C)NC(=O)[C@@H](NC(=O)C1(N)CCCC1)C(C)C)C(=O)N[C@@H](CCC(N)=O)C(=O)N[C@@H](Cc1ccccc1)C(=O)N[C@@H](CC(C)C)C(=O)N[C@@H](Cc1c[nH]cn1)C(=O)N[C@@H](CCC(N)=O)C(=O)N[C@@H](CCCCNC(=N)N)C(=O)N[C@@H](C)C(=O)N[C@H]1CCCCNC(=O)C[C@@H](C(N)=O)NC(=O)[C@H](CC(N)=O)NC(=O)[C@H](CC(C)C)NC(=O)[C@H](Cc2c[nH]c3ccccc23)NC1=O [SEQ ID NO: 27, H-Ac5c-Val-Aib-Glu-Ile-Gln-Phe-Leu-His-Gln-Har-Ala-Lys( )-Trp-Leu-Asn-Asp( )-NH2] (H-[Ac5c]V[Aib]EIQFLHQ[hArg]AKWLND-NH2; lactam 13-17)
EC50 [2]: 12.3 nM | Emax ± SEM [2]: 0.92 ± 0.06

CC[C@H](C)[C@H](NC(=O)[C@H](CCC(=O)O)NC(=O)C1(NC(=O)[C@@H](NC(=O)C(C)(C)N)C(C)C)CCCC1)C(=O)N[C@@H](CCC(N)=O)C(=O)N[C@@H](CC(C)C)C(=O)N[C@@H](CC(C)C)C(=O)N[C@@H](Cc1c[nH]cn1)C(=O)N[C@@H](CCC(N)=O)C(=O)N[C@@H](CCCCNC(=N)N)C(=O)N[C@@H](C)C(=O)N[C@H]1CCCCNC(=O)C[C@@H](C(N)=O)NC(=O)[C@H](CC(N)=O)NC(=O)[C@H](CC(C)C)NC(=O)[C@H](Cc2c[nH]c3ccccc23)NC1=O [SEQ ID NO: 13, H-Aib-Val-Ac5c-Glu-Ile-Gln-Leu-Leu-His-Gln-Har-Ala-Lys( )-Trp-Leu-Asn-Asp( )-NH2] (H-[Aib]V[Ac5c]EIQLLHQ[hArg]AKWLND-NH2; lactam 13-17)
EC50 [2]: 53.7 nM | Emax ± SEM [2]: 0.96 ± 0.03

CC[C@H](C)[C@H](NC(=O)[C@H](CCC(=O)O)NC(=O)C(C)(C)NC(=O)[C@@H](NC(=O)C1(N)CCCC1)C(C)C)C(=O)N[C@@H](CCC(N)=O)C(=O)N[C@@H](CC(C)C)C(=O)N[C@@H](CCSC)C(=O)N[C@@H](Cc1c[nH]cn1)C(=O)N[C@@H](CCC(N)=O)C(=O)N[C@@H](CCCCNC(=N)N)C(=O)N[C@@H](C)C(=O)N[C@H]1CCCCNC(=O)C[C@@H](C(N)=O)NC(=O)[C@H](CC(N)=O)NC(=O)[C@H](CC(C)C)NC(=O)[C@H](Cc2c[nH]c3ccccc23)NC1=O [2T, H-Ac5c-Val-Aib-Glu-Ile-Gln-Leu-Met-His-Gln-Har-Ala-Lys( )Trp-Leu-Asn-Asp( )-NH2] (H-[Ac5c]V[Aib]EIQLMHQ[hArg]AKWLND-NH2; lactam 13-17)
EC50 [2]: 6.61 nM | Emax ± SEM [2]: 0.70 ± 0.09

B1: H-Ac5c-Val-Aib-Glu-Ile-Gln-Leu-Met(O)-His-Gln-Har-Ala-Lys( )-Trp-Leu-Asn-Asp( )-NH2 (peptide)
chain: H-[Ac5c]V[Aib]EIQL[Met(O)]HQ[hArg]AKWLND-NH2
modifications: lactam 13-17
Emax, cAMP efficacy assay in Saos-2 cells (40T, trifluoroacetate salt) (relative to control (SEQ ID NO: 32)) [1]: 1.1 | pEC50, cAMP efficacy assay in Saos-2 cells (40T, trifluoroacetate salt) [1]: 6.9 -log(M)
